Experimental data as given in patent publication US20210130436A1 (published 2021).

How the values were obtained:
human CTLA-4 = target: T1, human CTLA-4 (human, UniProt P16410 36-223); experiment: flow cytometry, CHO cells stably expressing CTLA4
T1 construct: also called huCTLA4

human CD28 = human CD28 (human, UniProt P10747 19-220); experiment: flow cytometry, Jurkat cells (CD28)
human PD-L1 [1] = target: T2, human PD-L1 (human, UniProt Q9NZQ7 19-290); experiment: flow cytometry, CHO cells stably expressing PD-L1
T2 construct: also called huPD-L1; CD274

human PD-L1 [2] = target: T2, human PD-L1; experiment: flow cytometry; PD-L1 MFI over CD28 MFI
[3] = target: T3, human PD-L1 expressed on CHO cells (human, UniProt Q9NZQ7 19-290); experiment: flow cytometry; MFI on PD-L1 cells over MFI on CD28 (Jurkat) cells at 33.3 nM
T3 construct: whole, on cells; Target on CHO cells stably expressing PD-L1; also called huPD-L1

[4] = target: T4, human CTLA4 expressed on CHO cells (human, UniProt P16410 36-223); experiment: flow cytometry, CHO cells stably expressing CTLA4, Fc fusion at 33.3 nM
T4 construct: whole, on cells; Target on CHO cells stably expressing CTLA4; also called huCTLA4

[5] = target: T4, human CTLA4 expressed on CHO cells; experiment: flow cytometry, CHO cells stably expressing CTLA4; MFI relative to WT CD80 ECD-Fc (Abcam)
[6] = target: T3, human PD-L1 expressed on CHO cells; experiment: flow cytometry, CHO cells stably expressing PD-L1; MFI relative to WT CD80 ECD-Fc (Abcam)
[7] = target: T3, human PD-L1 expressed on CHO cells; experiment: flow cytometry, CHO cells stably expressing PD-L1, Fc fusion at 33.3 nM
[8] = target: T5, CD28 endogenously expressed on Jurkat/IL2 reporter cells (human, UniProt P10747 19-220); experiment: flow cytometry, Jurkat cells (CD28); MFI relative to WT CD80 ECD-Fc (Abcam)
T5 construct: whole, on cells; Target on Jurkat cells; also called Jurkats (CD28)

[9] = target: T5, CD28 endogenously expressed on …; experiment: flow cytometry, Jurkat cells (CD28), Fc fusion at 33.3 nM

T4 sequence (P16410 36-223): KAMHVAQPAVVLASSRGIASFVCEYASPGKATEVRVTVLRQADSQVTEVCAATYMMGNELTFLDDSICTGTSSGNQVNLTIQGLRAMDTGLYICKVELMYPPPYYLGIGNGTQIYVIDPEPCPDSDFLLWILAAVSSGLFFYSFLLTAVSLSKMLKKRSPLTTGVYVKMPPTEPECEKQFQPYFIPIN
T1 sequence (P16410 36-223): as above
T2 sequence (Q9NZQ7 19-290): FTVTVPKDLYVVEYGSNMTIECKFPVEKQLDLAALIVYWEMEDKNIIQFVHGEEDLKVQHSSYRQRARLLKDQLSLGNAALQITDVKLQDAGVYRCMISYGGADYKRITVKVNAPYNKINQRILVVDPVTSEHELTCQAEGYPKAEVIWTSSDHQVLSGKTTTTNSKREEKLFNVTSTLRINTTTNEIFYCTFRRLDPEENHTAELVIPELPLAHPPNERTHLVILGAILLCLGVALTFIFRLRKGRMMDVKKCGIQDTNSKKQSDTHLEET
T3 sequence (Q9NZQ7 19-290): as above

| Fold change to WT CD80 (human CTLA-4) [fold] | MFI at 33.3 nM (human CTLA-4) [MFI] | Fold change to WT CD80 (human CD28) [fold] | MFI at 33.3 nM (human CD28) [MFI] | Fold change to WT CD80 (human PD-L1 [1]) [fold] | MFI at 33.3 nM (human PD-L1 [1]) [MFI] | Ratio of PDL1:CD28 (human PD-L1 [2]) [ratio] | Ratio of PDL1:CD28 [3] [ratio] | MFI at 33.3 nM [4] [MFI] | Fold change to WT CD80 [5] [fold] | Fold change to WT CD80 [6] [fold] | MFI at 33.3 nM [7] [MFI] | Fold change to WT CD80 [8] [fold] | MFI at 33.3 nM [9] [MFI] | Binder |
| --- | --- | --- | --- | --- | --- | --- | --- | --- | --- | --- | --- | --- | --- | --- |
|  |  |  |  |  |  |  | 49.1 | 30300 | 0.7 | 94.4 | 12100 | 0.3 | 246 | CD80 E35D/M47V/V68M/L85Q/K89N IgV-Fc (Fc fusion, not shown: small tags and cut ends; a dimerising Fc or GST) VIHVTKEVKEVATLSCGHNVSVEELAQTRIYWQKDKKMVLTMMSGDVNIWPEYKNRTIFDITNNLSIMILALRPSDEGTYECVVQKYENDAFKREHLAEVTLSVKAD |
|  |  |  |  |  |  |  | 79.4 | 36500 | 0.9 | 205 | 26300 | 0.5 | 331 | CD80 E35D/D46V/M47V/V68M/L85Q IgV-Fc (Fc fusion, not shown: small tags and cut ends; a dimerising Fc or GST) VIHVTKEVKEVATLSCGHNVSVEELAQTRIYWQKDKKMVLTMMSGVVNIWPEYKNRTIFDITNNLSIMILALRPSDEGTYECVVQKYEKDAFKREHLAEVTLSVKAD |
|  |  |  |  |  |  |  | 14 | 34700 | 0.9 | 45 | 5770 | 0.6 | 411 | CD80 E35D/N48K/K89N IgV-Fc (Fc fusion, not shown: small tags and cut ends; a dimerising Fc or GST) VIHVTKEVKEVATLSCGHNVSVEELAQTRIYWQKDKKMVLTMMSGDMKIWPEYKNRTIFDITNNLSIVILALRPSDEGTYECVVLKYENDAFKREHLAEVTLSVKAD |
| 0.1 | 105 | 0.5 | 16 | 77 | 3970 | 248 |  |  |  |  |  |  |  | CD80 IgV-Fc T13R/Q33L/E35D/M47V/T62S/V68M/L85M (Fc fusion, not shown: a dimerising Fc or GST) VIHVTKEVKEVARLSCGHNVSVEELAQTRIYWLKDKKMVLTMMSGDVNIWPEYKNRTIFDISNNLSIMILALRPSDEGTYECVVMKYEKDAFKREHLAEVTLSVKAD |
| 11.8 | 20700 | 0.4 | 14.1 | 285 | 14700 | 1040 |  |  |  |  |  |  |  | CD80 IgV-Fc T13R/Q33R/E35D/M47L/V68M (Fc fusion, not shown: a dimerising Fc or GST) VIHVTKEVKEVARLSCGHNVSVEELAQTRIYWRKDKKMVLTMMSGDLNIWPEYKNRTIFDITNNLSIMILALRPSDEGTYECVVLKYEKDAFKREHLAEVTLSVKAD |

Second part, the binder before the results:

| Binder | Fold change to WT CD80 (human CTLA-4) [fold] | MFI at 33.3 nM (human CTLA-4) [MFI] | Fold change to WT CD80 (human CD28) [fold] | MFI at 33.3 nM (human CD28) [MFI] | Fold change to WT CD80 (human PD-L1 [1]) [fold] | MFI at 33.3 nM (human PD-L1 [1]) [MFI] | Ratio of PDL1:CD28 (human PD-L1 [2]) [ratio] | Ratio of PDL1:CD28 [3] [ratio] | MFI at 33.3 nM [4] [MFI] | Fold change to WT CD80 [5] [fold] | Fold change to WT CD80 [6] [fold] | MFI at 33.3 nM [7] [MFI] | Fold change to WT CD80 [8] [fold] | MFI at 33.3 nM [9] [MFI] |
| --- | --- | --- | --- | --- | --- | --- | --- | --- | --- | --- | --- | --- | --- | --- |
| CD80 IgV-Fc T13R/Q27L/Q33L/E35D/T41S/M47V/N48K/V68M/L85M (Fc fusion, not shown: a dimerising Fc or GST) VIHVTKEVKEVARLSCGHNVSVEELALTRIYWLKDKKMVLSMMSGDVKIWPEYKNRTIFDITNNLSIMILALRPSDEGTYECVVMKYEKDAFKREHLAEVTLSVKAD | 0.1 | 109 | 0.5 | 14.6 | 63.5 | 3270 | 224 |  |  |  |  |  |  |  |
| CD80 N48K/V68M IgV-Fc (Fc fusion, not shown: small tags and cut ends; a dimerising Fc or GST) VIHVTKEVKEVATLSCGHNVSVEELAQTRIYWQKEKKMVLTMMSGDMKIWPEYKNRTIFDITNNLSIMILALRPSDEGTYECVVLKYEKDAFKREHLAEVTLSVKAD |  |  |  |  |  |  |  | 6.4 | 2340 | 0.1 | 5.9 | 754 | 0.2 | 118 |
| CD80 E35D/D46V/M47V/N48K/V68M IgV-Fc (Fc fusion, not shown: small tags and cut ends; a dimerising Fc or GST) VIHVTKEVKEVATLSCGHNVSVEELAQTRIYWQKDKKMVLTMMSGVVKIWPEYKNRTIFDITNNLSIMILALRPSDEGTYECVVLKYEKDAFKREHLAEVTLSVKAD |  |  |  |  |  |  |  | 23.9 | 23900 | 0.6 | 203 | 25900 | 1.5 | 1080 |
| CD80 M47V/N48K/V68M IgV-Fc (Fc fusion, not shown: small tags and cut ends; a dimerising Fc or GST) VIHVTKEVKEVATLSCGHNVSVEELAQTRIYWQKEKKMVLTMMSGDVKIWPEYKNRTIFDITNNLSIMILALRPSDEGTYECVVLKYEKDAFKREHLAEVTLSVKAD |  |  |  |  |  |  |  | 22.6 | 34600 | 0.9 | 113 | 14500 | 0.9 | 641 |
| CD80 E35D/M47V/N48K/K89N IgV-Fc (Fc fusion, not shown: small tags and cut ends; a dimerising Fc or GST) VIHVTKEVKEVATLSCGHNVSVEELAQTRIYWQKDKKMVLTMMSGDVKIWPEYKNRTIFDITNNLSIVILALRPSDEGTYECVVLKYENDAFKREHLAEVTLSVKAD |  |  |  |  |  |  |  | 9.5 | 43800 | 1.1 | 52.1 | 6670 | 1 | 701 |
| CD80 E35D/M47V/N48K/V68M/L85Q IgV-Fc (Fc fusion, not shown: small tags and cut ends; a dimerising Fc or GST) VIHVTKEVKEVATLSCGHNVSVEELAQTRIYWQKDKKMVLTMMSGDVKIWPEYKNRTIFDITNNLSIMILALRPSDEGTYECVVQKYEKDAFKREHLAEVTLSVKAD |  |  |  |  |  |  |  | 88.8 | 26100 | 0.6 | 81.9 | 10500 | 0.2 | 118 |
| CD80 M47V/N48K/K89N IgV-Fc (Fc fusion, not shown: small tags and cut ends; a dimerising Fc or GST) VIHVTKEVKEVATLSCGHNVSVEELAQTRIYWQKEKKMVLTMMSGDVKIWPEYKNRTIFDITNNLSIVILALRPSDEGTYECVVLKYENDAFKREHLAEVTLSVKAD |  |  |  |  |  |  |  | 6.5 | 42100 | 1 | 18.5 | 2370 | 0.5 | 366 |
| CD80 IgV-Fc T13R/Q33R/E35D/M38I/M47L/V68M/L85M (Fc fusion, not shown: a dimerising Fc or GST) VIHVTKEVKEVARLSCGHNVSVEELAQTRIYWRKDKKIVLTMMSGDLNIWPEYKNRTIFDITNNLSIMILALRPSDEGTYECVVMKYEKDAFKREHLAEVTLSVKAD | 12.6 | 22000 | 0.5 | 14.2 | 21.5 | 1110 | 77.9 |  |  |  |  |  |  |  |
| CD80 IgV-Fc T13R/Q33L/E35D/M47L/V68M/L85M (Fc fusion, not shown: a dimerising Fc or GST) VIHVTKEVKEVARLSCGHNVSVEELAQTRIYWLKDKKMVLTMMSGDLNIWPEYKNRTIFDITNNLSIMILALRPSDEGTYECVVMKYEKDAFKREHLAEVTLSVKAD | 0.1 | 141 | 0.5 | 15.7 | 62.7 | 3230 | 206 |  |  |  |  |  |  |  |
| CD80 IgV-Fc T13R/Q33R/E35D/M47L/V68M/L85M (Fc fusion, not shown: a dimerising Fc or GST) VIHVTKEVKEVARLSCGHNVSVEELAQTRIYWRKDKKMVLTMMSGDLNIWPEYKNRTIFDITNNLSIMILALRPSDEGTYECVVMKYEKDAFKREHLAEVTLSVKAD | 7.7 | 13400 | 3.6 | 112 | 368 | 18900 | 169 |  |  |  |  |  |  |  |
| CD80 IgV-Fc T13R/Q33R/E35D/M38I/M47L/V68M/E95V/L97Q (Fc fusion, not shown: a dimerising Fc or GST) VIHVTKEVKEVARLSCGHNVSVEELAQTRIYWRKDKKIVLTMMSGDLNIWPEYKNRTIFDITNNLSIMILALRPSDEGTYECVVLKYEKDAFKRVHQAEVTLSVKAD | 11.8 | 20700 | 35.4 | 1110 | 372 | 19200 | 17.2 |  |  |  |  |  |  |  |
